{
  "source": "patent US20090068224A1",
  "about": "“METHOD TO IDENTIFY POLYPEPTIDE TOLL-LIKE RECEPTOR (TLR) LIGANDS” (VAXINNATE CORPORATION, priority 2005, published 2009)",
  "molecules": {"B1": {"name": "T7 phage displaying the E. coli flagellin (fliC) protein (ligand)", "chain": "MAQVINTNSLSLITQNNINKNQSALSSSIERLSSGLRINSAKDDAAGQAIANRFTSNIKGLTQAARNANDGISVAQTTEGALSEINNNLQRVRELTVQATTGTNSESDLSSIQDEIKSRLDEIDRVSGQTQFNGVNVLAKNGSMKIQVGANDNQTITIDLKQIDAKTLGLDGFSVKNNDTVTTSAPVTAFGATTTNNIKLTGITLSTEAATDTGGTNPASIEGVYTDNGNDYYAKITGGDNDGKYYAVTVANDGTVTMATGATANATVTDANTTKATTITSGGTPVQIDNTAGSATANLGAVSLVKLQDSKGNDTDTYALKDTNGNLYAADVNETTGAVSVKTITYTDSSGAASSPTAVKLGGDDGKTEVVDIDGKTYDSADLNGGNLQTGLTAGGEALTAVANGKTTDPLKALDDAIASVDKFRSSLGAVQNRLDSAVTNLNNTTTNLSEAQSRIQDADYATEVSNMSKAQIIQQAGNSVLAKANQVPQQVLSLLQG", "notes": "also called fliC phage; recombinant fliC-phage"}},
  "key": {"TLR2 [1]": {"biological_target": "T1, TLR2 (Homo sapiens, UniProt O60603)", "test": "NF-κB-dependent luciferase reporter assay, 293 vs 293.hTLR2 cells", "type": "cell-based", "settings": "synthetic peptide on parental 293 and 293.hTLR2 cells, four to five hours at 37° C.", "procedure": "NF-κB-dependent luciferase reporter assay: Parental 293 cells and 293.hTLR2 cells (see Example 1, above) were incubated with an aliquot of test peptide four to five hours at 37° C. NF-κB-dependent luciferase activity was measured using the Steady-Glo Luciferase Assay System by Promega (E2510), following the manufacturer's instructions. Luminescence was measured on a microplate luminometer (FARCyte, Amersham) and expressed as relative luminescence units (RLU) after subtracting the background reading obtained by exposing cells to the DMEM medium alone.\nThe biological activity of the TLR2-binding peptides isolated by the screening method was confirmed using the isolated peptides in an NF-κB-dependent reporter gene assay. For this assay, a synthetic monomer of the DPDSG motif (SEQ ID NO: 5), or a concatemerized copy (DPDSG)5, was incubated on parental HEK293 cells containing an NF-κB-dependent luciferase reporter construct (293) and on TLR2-overexpressing HEK293 cells containing an NF-κB-dependent luciferase reporter construct (293.hTLR2, see Example 1, above). Luciferase activity was then measured. […] Thus, the TLR2-binding peptides identified by the screening assay are functional peptide TLR2 ligands."}, "TLR2 [2]": {"biological_target": "T1, TLR2", "set-up": "host or cells: monocytes and epithelial cells", "settings": "cited from earlier work"}, "[3]": {"biological_target": "human TLR2 (293.hTLR2 cells) (Homo sapiens, UniProt O60603)", "sequence (O60603 21-784)": "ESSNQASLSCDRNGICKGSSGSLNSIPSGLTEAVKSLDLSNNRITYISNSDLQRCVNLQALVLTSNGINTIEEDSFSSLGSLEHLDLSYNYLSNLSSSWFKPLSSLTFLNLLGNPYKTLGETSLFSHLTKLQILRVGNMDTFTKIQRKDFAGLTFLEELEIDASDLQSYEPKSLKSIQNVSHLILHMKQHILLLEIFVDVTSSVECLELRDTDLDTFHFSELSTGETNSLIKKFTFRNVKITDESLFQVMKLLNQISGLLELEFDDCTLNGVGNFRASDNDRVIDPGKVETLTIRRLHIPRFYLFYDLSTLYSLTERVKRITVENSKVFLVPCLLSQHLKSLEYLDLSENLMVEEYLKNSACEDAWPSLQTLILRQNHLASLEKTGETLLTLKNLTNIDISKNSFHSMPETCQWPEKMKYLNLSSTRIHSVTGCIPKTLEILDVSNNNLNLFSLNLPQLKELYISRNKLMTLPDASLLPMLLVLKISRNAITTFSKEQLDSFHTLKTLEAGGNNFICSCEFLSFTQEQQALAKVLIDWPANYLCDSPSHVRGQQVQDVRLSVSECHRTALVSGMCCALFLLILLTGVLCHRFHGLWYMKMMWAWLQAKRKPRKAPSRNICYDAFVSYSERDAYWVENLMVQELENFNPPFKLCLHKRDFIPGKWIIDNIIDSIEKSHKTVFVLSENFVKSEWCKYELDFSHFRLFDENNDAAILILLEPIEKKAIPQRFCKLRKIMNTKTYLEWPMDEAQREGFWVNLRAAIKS", "test": "Biopanning of pentameric random peptide phage display library, sequencing of enriched clones", "type": "binding", "settings": "percentage of all clones sequenced (n = 109) having given peptide sequence; after 4 rounds of biopanning, TLRlo parental HEK293, TLRhi 293.hTLR2; peptides with identity to known microbial proteins", "procedure": "Screening of phage display libraries by biopanning: Phage display libraries are screened for peptide TLR ligands according to the following procedure. The phage display library is incubated on an in vitro cultured monolayer of cells that express minimal amounts of the TLR of interest (TLR^lo) in order to reduce non-specific binding, and then transferred to an in vitro suspension culture of cells expressing the relevant TLR (TLR^hi) to capture phage with binding specificity for the target TLR. After several washes with PBS to remove phage remaining unbound to the TLR^hi cells, TLR^hi cell-bound phages are harvested by centrifugation. The TLR^hi cells with bound phage are incubated with E. coli (strain BLT5615) in order to amplify the phage. This process is repeated three or more times to yield a phage population enriched for high affinity binding to the target TLR.\nIn each round of biopanning, the harvested phage that are bound to TLR^hi cells can be titred prior to amplification, amplified, and then titred again prior to initiation of the next cycle of biopanning. In this way, it is possible to determine the percent (%) of input phage in each cycle that are ultimately harvested from the TLR^hi cells. This calculation provides a round-by-round measure of enrichment within the phage display library for phage that display TLR-binding peptides.\nConstruction of random peptide libraries (RPL): A pentameric random peptide phage display library of T7SELECT phage was constructed essentially as described in Example 2. A pair of phosphorylated oligonucleotides with the sequence NNBNNBNNBNNBNNB (where N=A/G/C/T, B=G/C/T) flanked at the 5′ and 3′ ends by EcoRI and HindIII sites, respectively, was synthesized. Equimolar amounts of the oligonucleotides were annealed by heating for 5 min at 90° C. with gradual cooling to 25° C. The double stranded DNA was ligated to T7Select 10-3 bacteriophage vector (Novagen) that had been previously digested with EcoRI and HindIII. The ligation reactions were packaged in vitro and titred using the host E. coli strain […] that was grown in M9TB (Novagen), generating 2.5×10^7 clones, representing about 75% coverage of the library. The recombinant phage were subjected to several rounds of amplification to generate a total library of 1.35×10^12 phage, ensuring representation in excess of 5×10^4 fold for each clone in the library.\nSequencing of phage inserts: Individual phage clones from the enriched pool are isolated via plaque formation in E. coli. The DNA inserts of individual phage are amplified in PCR using the commercially available primers T7SelectUP (5′-GGAGCTGTCGTATTCCAGTC-3′; SEQ ID NO: 37; Novagen, catalog #70005) and T7SelectDOWN (5′-AACCCCTCAAGACCCGTTTA-3′; SEQ ID NO: 38; Novagen, catalog #70006). The PCR product DNA is purified using the QIAquick 96 PCR Purification Kit (Qiagen) and subjected to DNA sequencing using T7SelectUP and T7SelectDOWN primers.\nWe constructed a pentameric random peptide phage display library in T7 phage. This phage library was then screened by biopanning as described in Example 3. For this screen, the TLR^lo cells were parental HEK293 (TLR2^−) cells, and the TLR^hi cells were HEK293 cells ectopically expressing human TLR2 (293.hTLR2, see Example 1, above). Phage bound to 293.hTLR2 cells were harvested, titred, and amplified prior to initiation of the each cycle of panning. In this way, it was possible to determine the % of input phage in each cycle that was ultimately harvested from the TLR2^hi cells.\nAfter 4 rounds of biopanning, individual phage clones from the enriched pool were isolated via plaque formation in E. coli. […] phage clones were randomly picked for sequencing. Of the 109 individual clones examined the motif DPDSG was predominant (see Tables 6 and 7). […]"}, "human TLR5": {"biological_target": "T2, human TLR5 (human, UniProt O60602 21-858)", "T2 construct": "Expressed ectopically on HEK293 cells from the bought Invivogen plasmid pUNO-hTLR5 (293.hTLR5); also called hTLR5", "T2 sequence (O60602 21-858 limits assumed)": "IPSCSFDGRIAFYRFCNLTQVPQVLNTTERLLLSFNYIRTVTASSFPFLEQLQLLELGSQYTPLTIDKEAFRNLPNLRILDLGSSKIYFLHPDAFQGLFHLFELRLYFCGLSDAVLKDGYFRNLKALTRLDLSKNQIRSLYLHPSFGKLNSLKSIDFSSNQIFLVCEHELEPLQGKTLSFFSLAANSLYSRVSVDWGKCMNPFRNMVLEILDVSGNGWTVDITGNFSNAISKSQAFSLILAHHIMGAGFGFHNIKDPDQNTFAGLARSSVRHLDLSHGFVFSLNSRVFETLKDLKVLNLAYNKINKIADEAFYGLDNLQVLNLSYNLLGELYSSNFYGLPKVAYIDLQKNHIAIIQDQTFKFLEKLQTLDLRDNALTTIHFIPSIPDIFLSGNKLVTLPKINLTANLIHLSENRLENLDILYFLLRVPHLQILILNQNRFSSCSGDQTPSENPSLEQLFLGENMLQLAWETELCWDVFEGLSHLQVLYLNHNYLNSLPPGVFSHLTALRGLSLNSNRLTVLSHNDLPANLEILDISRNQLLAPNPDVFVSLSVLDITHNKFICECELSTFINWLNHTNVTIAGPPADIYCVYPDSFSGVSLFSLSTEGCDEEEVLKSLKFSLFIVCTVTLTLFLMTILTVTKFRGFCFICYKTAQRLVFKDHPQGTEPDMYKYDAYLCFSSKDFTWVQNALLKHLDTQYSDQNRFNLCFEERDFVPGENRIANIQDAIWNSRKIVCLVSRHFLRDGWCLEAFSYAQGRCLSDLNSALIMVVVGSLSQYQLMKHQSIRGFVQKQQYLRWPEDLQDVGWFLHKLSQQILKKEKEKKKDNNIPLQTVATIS", "test": "fliC-phage incubated on 293 and 293.hTLR5 cells; NF-κB luciferase read-out"}},
  "data": [
    {"molecule": "(DPDSG)5 (DPDSGDPDSGDPDSGDPDSGDPDSG) [concatemerized copy of the DPDSG motif, solid phase synthesis]", "values": [
      {"measurement": "NF-κB-dependent luciferase reporter gene expression", "setting": "TLR2 [1]", "result": "activated luciferase reporter gene expression in a TLR2-dependent manner"}
    ]},
    {"molecule": "ALTTE (PEPTIDEALTTE) [pentapeptide derived from fimbrial subunit protein, known TLR2 ligand]", "values": [
      {"measurement": "activation of monocytes and epithelial cells via TLR2 signaling", "setting": "TLR2 [2]; Ogawa et al. 1995, 2002, Asai et al. 2001", "result": "activate monocytes and epithelial cells via TLR2 signaling"}
    ]},
    {"molecule": "DPDSG [peptide TLR2 ligand; also made as synthetic monomer]", "values": [
      {"measurement": "NF-κB-dependent luciferase reporter gene expression", "setting": "TLR2 [1]", "result": "activated luciferase reporter gene expression in a TLR2-dependent manner"},
      {"measurement": "% Abundance", "setting": "[3]", "result": 46.8, "unit": "%"}
    ]},
    {"molecule": "GLTTE (PEPTIDEGLTTE) [A to G substitution variant of ALTTE]", "values": [
      {"measurement": "antagonism of the wild-type peptide and full-length fimbrial protein", "setting": "TLR2 [2]; single amino acid substitution (A to G), Ogawa et al. 1995", "result": "antagonize the activity of the wild-type peptide and full-length protein"}
    ]},
    {"molecule": "B1", "values": [
      {"measurement": "binding result", "setting": "human TLR5", "result": "binds"}
    ]}
  ]
}
